Experimental data as given in a protein production outcome set (Wang et al. 2014).

Assay: label from the status in PepcDB records

With “MISRRTFALAAVASVLLGGTFVGAKAGLSYLPPLLFVALRFDIAAVVLLGYVVVTRSRDELLPRTRGDVLGILSTGLFALGLANALIFVGQQSATSAVAAIIFSLNPILTPVFAAILLSDERLSARGGLGMVIGLLGVGLVVSPDPAMLLSGGIGKLILFAGAASAALGSVLIRWSGGGLSSTVRTAWALPVAAALCHALSIGMGESAATAVWSPTAIAALLYVGIFAGAIAYIAYFGLLDVTGAIQANLIFYVVPVVSTLGGWALLGEAITPTAVAGFLTIFTGFVVLGSESVDIRALLPATTDEGDTVSESLGIADEQRGFESD” the protein production was “failed”.
In the case of “MISVCIATYNGEKYLAEQLDSILLQVSEEDELIISDDGSTDHTLEILRTYAANYPQIQLLQGPGQGVIANFAFALTHTKGEVIFLADQDDVWLPNKVTTVTEYFETHPDIQVVISDLKIVDADLQVTNPSYFKFRKVKPGFWRNAIKSGYIGAGMAFRQEMKNVILPIPPEVPMHDMWIGLLAARKKQTGLIKEPLVLYRRHGANVSPIITKTSFQQKLNWRVNLLKALHQRLKEQRLEHHHHHH”, the protein production is reported as “not failed”.
With “MITDCCPGFGSVAKYIAVSMLEASFDVASMAKTSTKVFILEVMGRHAGWIAAAGGLASNEDHEVPIIILFPEVTFDQEKFLAKTDHYVKEYGYCTVVVSEGVKGTDGKFLSDQGLRDAFGHAQLGGVAPVIANIVKNGLGLEHHHHHH” the protein production was “not failed”.
In the case of “MITDEHIELFLAQAHRYGDAKLMLCSSGNLSWRIGEEALISGTGSWVPTLAKEKVSICNIASGTPTNGVKPSMESTFHLGVLRERPDVNVVLHFQSEYATAISCMKNKPTNFNVTAEIPCHVGSEIPVIPYYRPGSPELAKAVVEAMLKHNSVLLTNHGQVVCGKDFDQVYERATFFEMACRIIVQSGGDYSVLTPEEIEDLEIYVLGKKTK”, the protein production is reported as “not failed”.
In the case of “MITIDALGQVCPIPVIRAKKALAELGEAGGVVTVLVDNDISRQNLQKMAEGMGYQAEYLEKDNGVIEVTIVAGEGCAVETSGTAADSGLVVAIGRNTMGEGSEELGRILLKGFIYSLRELTPPPARLLFFNSGAHLTSKDSNSIEDLKAMAAQGTIIQTCGTCLNYYGITEQLAVGQVANMYDIVTAMTEAKRLINI”, the protein production is reported as “failed”.
For “MITLAVRLKNLAFLLIAVLALSFLGIRYADLGRYVGVADYYTVDVHLPRTGGLFTHSDVTYRGVSVGRVGPIDLTAEGVVAELRIKKSAPRIPADTKAVVAGLSAVGEQYIDLRPESDGSPYLADGTRIEQADTEVPAPVTDVLTSVDDLASSVPLEDLRTVVDEFGKAFDGHGDDLQVLLDSGSDFVEAADRALPSTTLLINDGETVLRTQAQEARAIRDFAVGAKDLAAALKGSDADLRRLLAVTPEAATQVSGLLRDLDPSLGVVLANLLTTSEVAVTRQRGIEELLVKYPAAVSAGATAVDGGKLDLGLAVTFFSPLPCTDGYGGTRYRNGLDLGTAPALNTDAACTAPASGGKNVRGSANAPKSGAVPDPATPGSLPSGGGRTTPAGGGSPARDGSTALPGALALPGQSGEAPAGLTGLLAPAAGGARLEHHHHHH”, the protein production was “failed”.
For “MITLTKEGGPADLDGVTHLSIGVSWDPTAGSSGGVLGKLRRKTGTDLDLIAVAMQGGDPVRLAGLDSLDPMGNGSLLHSGDNQTGHGDGDDETVTVEFARLPSAITSIVFVAAAYKKGSSFQKARNISFKVYDATGGSSEQVADIWPSLLSQDNGCAVAKAVRVGGTWKLEVVNETGKIKQGDEHALMRFAVSK”, the protein production was “failed”.
With “MITMKISSRFSIAVHILSILKNNPSSLCTSDYMAESVNTNPVVIRKIMSYLKQAGFVYVNRGPGGAGLLKDLHEITLLDVYHAVNVVEEDKLFHIHEQPNPDCPIGANIQAVLEIILIQAQSAMEEVLRNITMGQLFETLQEKMNA” the protein production was “not failed”.
In the case of “MITRLTDIELEQIRGVIFDLDGTLAHSNPDFKGLRAALGIGSGTDILEHIHSLETTVAKMQALEIVHDYELESSRQASWIEGAQALIAFLKTRQLPLAILTRNMPEAAKITIEKLGIDIPLVLTRYDAEPKPHPQGIYLICEQWQLNPADILYVGDYLFDLQTAQNAGSRCALYCPEDVPDYAQAADLLVSCYHSLIQAWPK”, the protein production is reported as “failed”.
In the case of “MITSRSTGELVIPVSRRINNKDGNFGGVFLVTLRVQYFSRFYADFRMDEQGVIVLADQNGTIMVRHPFDTNMIGRNIAKGDIFSKYLPHASRGVHMVVAITDKVERMYGYERLNRYPLVVLAGKSKRAILGSWYESLYGSLIMLCLILPIPVLFATLISRQIKTTLKVEDELRLAYAAVEAIAMQDSLTGLANRRQLDVVLPAEIKRAKRTSQPLGVIMVDIDYFKRYNDYYGHPAGDLCIKAIANVLKNHTRRAGNLAARYGGEELTVLLPSCDQAAVLAAAERIVESIRGLQIAHDDSPEGYLTVSVGAYSYSAFNKEVDASGLLKCADDALYAAKQAGRNRARLSA”, the protein production is reported as “failed”.
In the case of “MIVDFETHFITEACIDYLTQRQEVPKLVPDLNGAYTMCFTPDVSLFHTSALMEELLSLNEQRLAIMDQAGVTIQVLSLTTINGIDSCPGDENKSTALAREVNDQLYSAIQRHPERFKGFASISPYDVKEGVKELERAISQLGFVGWLTHSNFGQDNYLDDKTYWPLLEAAEGLNIPIYLHPNVPIMREFGKYGFALGGSALGFEFDTALCLMRMILGGVFDAFPKLKIMLGHLGETMPFLMERLDHLYRIPDLKAYRPSIQRIPSEVLRQNVYITTSGRFFVPALRYVLEVMGEDRVLFASDYPMESLLDATRFIQDSDLSNQTKQKIFSINAKNLNLILEHHHHHH”, the protein production is reported as “failed”.
For “MIVFDGHNDVLTELVRAGGRAAAGGFLSGLPGQLDLPRARAGGFGGGFFALWARSEGATDFSTLGPEYDLPLPEPVPEAQAWEMIRAQADTLVALEEAGAVRICTSTAQIARARDEGLLGAILHLEGAEGIGPDFYELEELYALGLRSLGPVWSRPNAFGHGVPFRYPSGPDIGPGLTERGRALIARCEELRILIDLSHLNLAGFREVAALSKRPLVATHSNAHARVPHARNLTDEQLRIMAESGGLAGVNFESTFLRPDGRPDDDIPAAWLLAQFDHLLDRLGEEGVAIGSDYDGCTPPAWLNSVDKLPALIAAMERHGYPAARIERICWGNWMRVLAETWGESA”, the protein production was “failed”.
For “MIVLALLGVLLLSVYAYKTKKLTLSGAISAFVVGALISFGLGFKGLLLLAIFFFTSGFWSRFYQERKENEITAKGSTRDGWQVLANGGFAAICALLFSILQDPIYICGFVASLAAANADTWASEVGPLAKRRPIHIIKWKPVDAGTSGAVSAIGTAAAFAGSFIIVVVSIFFWWSSSFASHHLLFSLTLAGFLGNLFDTLVGATGQVLYQCPRCGLETERKIHCNGPTEKKYGLRFLNNDTVNAICTGTGALFGIVAGLILL”, the protein production was “failed”.
With “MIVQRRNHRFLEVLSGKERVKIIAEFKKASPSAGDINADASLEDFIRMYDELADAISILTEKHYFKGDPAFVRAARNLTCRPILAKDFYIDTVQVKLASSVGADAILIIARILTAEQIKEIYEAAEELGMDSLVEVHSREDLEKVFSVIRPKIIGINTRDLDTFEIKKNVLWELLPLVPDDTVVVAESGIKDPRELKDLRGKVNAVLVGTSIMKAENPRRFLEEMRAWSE” the protein production was “not failed”.
In the case of “MIVSVVIPVAKEGNTLYERIHLINKHFNSLSSSHKFSYEIILVSDIFHKPTLKAMIRLAKENVAKCLLLTQRIGKGGSIKNAIPFSRGDYIVILDADIPVRPIFINQAVVLAMNLGIDLIIANRVYRTHSLLRRVLSVAYNSLVNLLFKTGLRDHQAGLKILSRRAAKIILMKRTRTDGLAYDTEIVVWAKRHGLRYRAVNVVWREQREGSTIPPMRALLTMLADLIMLRLLTLAGKYVALQKLVIGRVIDLGNIHTVGQEFMTVIRASRPKNHLLNVLRKLYIAVALRR”, the protein production is reported as “failed”.
In the case of “MIWIILASFLMYSIFVMWFSWYKTRGTDLSSSDGYFLGGRSLTGIVIASSLILTNLSTEQVVGLNGQAFGESMVVMAWEVTAPIALILMAFVFLPRYLKLGITTIPDFLEQRFDLRTRQIVSVLFLLGYATVFLPTVLYSGALVIDSIFSLSSVMDISPFMIVLCISIAIGIISCGYVILGGLKACAMSDTINGIGLIIGGLLIPILALFVLGRGDFASGVGELVSANPTKLNAIGNDQASVPWAVLLTGLLFNNLFYWCTNQSIIQRTLAAKNLAEGQKGVLFAGMFKIFGAAFLVLPGIIAYLLYGDVLANADMAYPSLVIDVMPVALSGFLAAVLFGAILSSFNNVLNSSITLFTLDIYKPIFKPNAKEPELVKAGRIFAACLAITAVVIAPFILYAPQGLYYFLQEMNGFYSLPIIAMVIVGFFSKYVPASAPKVLVAVHVVLYAGSKVVLGEVNFLYVLSVLFPINVLVMLIVGRLKPRETSFVLPTANKVDLTPWKYAKPFSAFILLTMLGVYTFFSPLGVAESSGGYTIYQFIFFIVTLAFIGGVVLFWKKTDRIRGGRVPLNQMYPFNQKSG”, the protein production is reported as “failed”.
For “MIWMAEIEGIYTIWLREMKRFFRYRSRIVTSIVTPLLWLIIFGTGLGAAVRFGGVPGGYKAFIYPGIIGQTVLFTSIFSGVSVIIDRQYGFLKEILVAPISRESMVVGKALGISTASMIQAAILLALSFIVGITMSPQCFIVSMVIALIISMGLGGLGLVIAAFTDSMEGFNLIMSFIVLPIFLLSGALFPITGLPAWLQGAVYINPLTYAVDALRFTILRRSVLPLEVNLLVITIFAVIAVLIAAFLFNRKEQNLM”, the protein production was “failed”.
In the case of “MIYFIRKKKWLKQLEKGEAMKYAILIGDGMADYPIEKLGNRTILQAARTPAMDSIAARGRAGLAKTVPDSFPPGSDVANMSILGYDPATYYSGRAPLEAASMGVALAADDVAFRCNLITTEHGMIKDYSAGHISSDEAEILIDTLDYELSTENIRFYPGISYRHLIVAGNNLGAETECTPPHDITGEKIDKYLPRGKDGEFFSELIEASKVVLELHPVNLKRVEEGKNPANSIWVWGQGYAPKFTAFMKLYGKKGAVISAVDLLKGIGIYAGLDVIEVHGATGYLDTNYEGKVRAAIEALKTRDLVFVHVEAPDEAGHEGSIEKKLKAVEDFDSRIVAPILEYAENSDEPFTILVLPDHPTPISVKTHTRDPIPFAIYRTDKPETDNVEAFDEESVKNGSMGLVKASDLIGILIKS”, the protein production is reported as “failed”.
In the case of “MIYLRKANERGHANHGWLDSWHTFSFANYYDPNFMGFSALRVINDDVIEAGQGFGTHPHKDMEILTYVLEGTVEHQDSMGNKEQVPAGEFQIMSAGTGIRHSEYNPSSTERLHLYQIWIMPEENGITPRYEQRRFDAVQGKQLVLSPDARDGSLKVHQDMELYRWALLKDEQSVHQIAAERRVWIQVVKGNVTINGVKASTSDGLAIWDEQAISIHADSDSEVLLFDLPPV”, the protein production is reported as “not failed”.
With “MIYQPDENRYHTMEYRRCGRSGVKLPAISLGLWHNFGDTTRVENSRALLQRAFDLGITHFDLANNYGPPPGSAECNFGRILQEDFLPWRDELIISTKAGYTMWDGPYGDWGSRKYLIASLDQSLKRMGLEYVDIFYHHRPDPETPLKETMKALDHLVRHGKALYVGISNYPADLARQAIDILEDLGTPCLIHQPKYSLFERWVEDGLLALLQEKGVGSIAFSPLAGGQLTDRYLNGIPEDSRAASGSRFLKPEQITADKLEKVRRLNELAARRGQKLSQMALAWVLRNDNVTSVLIGASKPSQIEDAVGMLANRRFSAAECAEIDAILEGRF” the protein production was “failed”.
With “MKAALHNLGCKVNSYETEAMEQMLIAAGYEIVPFCEDEKADVYVINTCSVTNIADRKSRQMLHKAKKQNPNAIVVAAGCYVQARGDELAADDMVDIVIGNNRKNRLVEIINDYIGNNSNNEAVVDIAKTHEYEELNIYDVCEHTRAYIKVQDGCNQFCSYCIIPYTRGRVRSRRPEDVTAEVRRLVEKGYKEFILAGIHLSSYGIDFEAPCDEAVDYRAANMPGSRLLELIEAVCSVEGVKRLRLGSFEPRILTEAFVKRMAELEPVCPHFHISLQSGCDATLKRMNRRYTADEYEESCKLLRKYFPNAAITTDVIVGFPQETDEEFAITKEYLERIHFYEMHVFKYSRRKGTAADRMDGQVPEPVKTARSAGLLELEKRMSREYRESALGSIQEVLFEEVAGTCDDCGTSVITGHTKTYINVHVKLPADMSLEYINKICNVKLEHLSDDGEWVNGTLCG” the protein production was “failed”.
